Results reported in patent publication US20250057968A1, “ANTI-DLL3 ANTIBODY AND PHARMACEUTICAL USE THEREOF, AND ANTIBODY-DRUG CONJUGATE CONTAINING ANTI-DLL3 ANTIBODY” (Jiangsu Hengrui Pharmaceuticals Co., Ltd., priority 2021, published 2025).

Biological target: T1, human DLL3 (ACRO, DLL3-H52H4) (human, UniProt Q9NYJ7 27-479)
T1 construct: bought antigen of the Biacore assay; construct not described
T1 sequence (looked up): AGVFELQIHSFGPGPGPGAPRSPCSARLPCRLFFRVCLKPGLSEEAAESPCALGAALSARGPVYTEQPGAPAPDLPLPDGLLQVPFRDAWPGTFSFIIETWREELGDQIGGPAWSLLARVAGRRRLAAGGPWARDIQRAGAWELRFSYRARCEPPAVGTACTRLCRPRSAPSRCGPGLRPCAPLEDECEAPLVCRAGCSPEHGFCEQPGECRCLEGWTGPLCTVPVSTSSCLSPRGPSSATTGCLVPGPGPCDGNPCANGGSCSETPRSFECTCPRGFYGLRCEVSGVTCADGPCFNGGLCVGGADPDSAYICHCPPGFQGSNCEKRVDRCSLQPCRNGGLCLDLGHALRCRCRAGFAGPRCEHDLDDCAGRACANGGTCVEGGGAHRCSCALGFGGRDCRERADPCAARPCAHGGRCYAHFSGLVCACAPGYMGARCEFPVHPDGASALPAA
Experiment: SPR (Biacore 8K), antibody captured on Protein A chip, 1:1 fit
From the text: Test antibodies were affinity-captured with a Protein A biosensor chip (Cat. #29127556, Cytiva) for 18 seconds, and then the antigens human DLL3 (ACRO, DLL3-H52H4), cynomolgus monkey DLL3 (KACTUS, DLL-RM103), and mouse DLL3 (KACTUS, DLL-MM103) were allowed to flow over the surface of the chip for 180 seconds, followed by 600 seconds of dissociation. Reaction signals were detected in real time using a Biacore 8K (Cytiva) instrument to obtain association and dissociation curves. After the dissociation in each experimental cycle, the biosensor chip was washed and regenerated with a 10 mM glycine-hydrochloric acid solution (pH 1.5) (Cat. #BR-1003-54, Cytiva). A 1:1 model was fit to the data. The results are shown in Table 12-1, Table 12-2, and Table 12-3.

B1: Hu100 (antibody, human IgG1, kappa, V domains shown)
VH: EVQLVESGGGLVKPGGSLRLSCAASGFTFSDSGMHWIRQAPGKGLEWVSYISSGSSTIHYADTVKGRFTISRDNAKNSLYLQMNSLRAEDTAVYYCASPLYYYGRSYNAVAYWGQGTTVTVSS
VL: DIQMTQSPSSLSASVGDRVTITCHASQNINVWLSWYQQKPGKVPKLLIYKASDLHTGVPSRFSGSGSGTDFTLTISSLQPEDVATYYCQQGQSYPLTFGGGTKVEIKR
notes: also called hAb100L1H1
Kd: 0.436 nM
koff: 0.000374 s⁻¹
kon: 858000 M⁻¹ s⁻¹
